# Values of other authors in patent US20230220007A1, “SETD7 EPIGENETIC MODULATORS” (Biorchestra Co., Ltd., priority 2020, published 2023).
# System: histone
# Conditions: cited from earlier work; for histone monomethyl transferase activity: mutagenic studies on SETD7; for monomethyl transferase activity: SETD7 substitution mutants
Molecule,histone monomethyl transferase activity,monomethyl transferase activity
N302A: SETD7 substitution mutant at position 302 (protein) MDSDDEMVEEAVEGHLDDDGLPHGFCTVTYSSTDRFEGNFVHGEKNGRGKFFFFDGSTLEGYYVDDALQGQGVYTYEDGGVLQGTYVDGELNGPAQEYDTDGRLIFKGQYKDNIRHGVCWIYYPDGGSLVGEVNEDGEMTGEKIAYVYPDERTALYGKFIDGEMIEGKLATLMSTEEGRPHFELMPGNSVYHFDKSTSSCISTNALLPDPYESERVYVAESLISSAGEGLFSKVAVGPNTVMSFYNGVRITHQEVDSRDWALNGNTLSLDEETVIDVPEPYNHVSKYCASLGHKANHSFTPACIYDMFVHPRFGPIKCIRTLRAVEADEELTVAYGYDHSPPGKSGPEAPEWYQVELKAFQATQQK,partial or complete loss,
E329A: SETD7 substitution mutant at position 329 (protein) MDSDDEMVEEAVEGHLDDDGLPHGFCTVTYSSTDRFEGNFVHGEKNGRGKFFFFDGSTLEGYYVDDALQGQGVYTYEDGGVLQGTYVDGELNGPAQEYDTDGRLIFKGQYKDNIRHGVCWIYYPDGGSLVGEVNEDGEMTGEKIAYVYPDERTALYGKFIDGEMIEGKLATLMSTEEGRPHFELMPGNSVYHFDKSTSSCISTNALLPDPYESERVYVAESLISSAGEGLFSKVAVGPNTVMSFYNGVRITHQEVDSRDWALNGNTLSLDEETVIDVPEPYNHVSKYCASLGHKANHSFTPNCIYDMFVHPRFGPIKCIRTLRAVEADAELTVAYGYDHSPPGKSGPEAPEWYQVELKAFQATQQK,partial or complete loss,
E330A: SETD7 substitution mutant at position 330 (protein) MDSDDEMVEEAVEGHLDDDGLPHGFCTVTYSSTDRFEGNFVHGEKNGRGKFFFFDGSTLEGYYVDDALQGQGVYTYEDGGVLQGTYVDGELNGPAQEYDTDGRLIFKGQYKDNIRHGVCWIYYPDGGSLVGEVNEDGEMTGEKIAYVYPDERTALYGKFIDGEMIEGKLATLMSTEEGRPHFELMPGNSVYHFDKSTSSCISTNALLPDPYESERVYVAESLISSAGEGLFSKVAVGPNTVMSFYNGVRITHQEVDSRDWALNGNTLSLDEETVIDVPEPYNHVSKYCASLGHKANHSFTPNCIYDMFVHPRFGPIKCIRTLRAVEADEALTVAYGYDHSPPGKSGPEAPEWYQVELKAFQATQQK,partial or complete loss,
Y335A: SETD7 substitution mutant at position 335 (protein) MDSDDEMVEEAVEGHLDDDGLPHGFCTVTYSSTDRFEGNFVHGEKNGRGKFFFFDGSTLEGYYVDDALQGQGVYTYEDGGVLQGTYVDGELNGPAQEYDTDGRLIFKGQYKDNIRHGVCWIYYPDGGSLVGEVNEDGEMTGEKIAYVYPDERTALYGKFIDGEMIEGKLATLMSTEEGRPHFELMPGNSVYHFDKSTSSCISTNALLPDPYESERVYVAESLISSAGEGLFSKVAVGPNTVMSFYNGVRITHQEVDSRDWALNGNTLSLDEETVIDVPEPYNHVSKYCASLGHKANHSFTPNCIYDMFVHPRFGPIKCIRTLRAVEADEELTVAAGYDHSPPGKSGPEAPEWYQVELKAFQATQQK,partial or complete loss,
W352A: SETD7 substitution mutant at position 352 (protein) MDSDDEMVEEAVEGHLDDDGLPHGFCTVTYSSTDRFEGNFVHGEKNGRGKFFFFDGSTLEGYYVDDALQGQGVYTYEDGGVLQGTYVDGELNGPAQEYDTDGRLIFKGQYKDNIRHGVCWIYYPDGGSLVGEVNEDGEMTGEKIAYVYPDERTALYGKFIDGEMIEGKLATLMSTEEGRPHFELMPGNSVYHFDKSTSSCISTNALLPDPYESERVYVAESLISSAGEGLFSKVAVGPNTVMSFYNGVRITHQEVDSRDWALNGNTLSLDEETVIDVPEPYNHVSKYCASLGHKANHSFTPNCIYDMFVHPRFGPIKCIRTLRAVEADEELTVAYGYDHSPPGKSGPEAPEAYQVELKAFQATQQK,,complete loss
Y353A: SETD7 substitution mutant at position 353 (protein) MDSDDEMVEEAVEGHLDDDGLPHGFCTVTYSSTDRFEGNFVHGEKNGRGKFFFFDGSTLEGYYVDDALQGQGVYTYEDGGVLQGTYVDGELNGPAQEYDTDGRLIFKGQYKDNIRHGVCWIYYPDGGSLVGEVNEDGEMTGEKIAYVYPDERTALYGKFIDGEMIEGKLATLMSTEEGRPHFELMPGNSVYHFDKSTSSCISTNALLPDPYESERVYVAESLISSAGEGLFSKVAVGPNTVMSFYNGVRITHQEVDSRDWALNGNTLSLDEETVIDVPEPYNHVSKYCASLGHKANHSFTPNCIYDMFVHPRFGPIKCIRTLRAVEADEELTVAYGYDHSPPGKSGPEAPEWAQVELKAFQATQQK,,complete loss
E351A: SETD7 substitution mutant at position 351 (protein) MDSDDEMVEEAVEGHLDDDGLPHGFCTVTYSSTDRFEGNFVHGEKNGRGKFFFFDGSTLEGYYVDDALQGQGVYTYEDGGVLQGTYVDGELNGPAQEYDTDGRLIFKGQYKDNIRHGVCWIYYPDGGSLVGEVNEDGEMTGEKIAYVYPDERTALYGKFIDGEMIEGKLATLMSTEEGRPHFELMPGNSVYHFDKSTSSCISTNALLPDPYESERVYVAESLISSAGEGLFSKVAVGPNTVMSFYNGVRITHQEVDSRDWALNGNTLSLDEETVIDVPEPYNHVSKYCASLGHKANHSFTPNCIYDMFVHPRFGPIKCIRTLRAVEADEELTVAYGYDHSPPGKSGPEAPAWYQVELKAFQATQQK,,partial loss
Q354A: SETD7 substitution mutant at position 354 (protein) MDSDDEMVEEAVEGHLDDDGLPHGFCTVTYSSTDRFEGNFVHGEKNGRGKFFFFDGSTLEGYYVDDALQGQGVYTYEDGGVLQGTYVDGELNGPAQEYDTDGRLIFKGQYKDNIRHGVCWIYYPDGGSLVGEVNEDGEMTGEKIAYVYPDERTALYGKFIDGEMIEGKLATLMSTEEGRPHFELMPGNSVYHFDKSTSSCISTNALLPDPYESERVYVAESLISSAGEGLFSKVAVGPNTVMSFYNGVRITHQEVDSRDWALNGNTLSLDEETVIDVPEPYNHVSKYCASLGHKANHSFTPNCIYDMFVHPRFGPIKCIRTLRAVEADEELTVAYGYDHSPPGKSGPEAPEWYAVELKAFQATQQK,,partial loss
E356A: SETD7 substitution mutant at position 356 (protein) MDSDDEMVEEAVEGHLDDDGLPHGFCTVTYSSTDRFEGNFVHGEKNGRGKFFFFDGSTLEGYYVDDALQGQGVYTYEDGGVLQGTYVDGELNGPAQEYDTDGRLIFKGQYKDNIRHGVCWIYYPDGGSLVGEVNEDGEMTGEKIAYVYPDERTALYGKFIDGEMIEGKLATLMSTEEGRPHFELMPGNSVYHFDKSTSSCISTNALLPDPYESERVYVAESLISSAGEGLFSKVAVGPNTVMSFYNGVRITHQEVDSRDWALNGNTLSLDEETVIDVPEPYNHVSKYCASLGHKANHSFTPNCIYDMFVHPRFGPIKCIRTLRAVEADEELTVAYGYDHSPPGKSGPEAPEWYQVALKAFQATQQK,,partial loss
